For assay [1], the target named is recombinant human angiotensin-converting enzyme-2 (ACE2) (human) (UniProt Q9BYF1). The assay can be described thus: BLI. For orientation: Biolayer interferometry detects binding as a change in optical thickness at a sensor tip.
Assay [2] deals with 2019-nCoV spike 1 protein (S1) (2019-nCoV (SARS-CoV-2)). The assay can be described thus: BLI.

The values that follow come from publication doi:10.1101/2020.03.29.013490.

One may read the Kd as a measure of binding affinity in units of concentration.

Sequence of recombinant human angiotensin-converting enzyme-2 (ACE2) (human) (Q9BYF1 18-740): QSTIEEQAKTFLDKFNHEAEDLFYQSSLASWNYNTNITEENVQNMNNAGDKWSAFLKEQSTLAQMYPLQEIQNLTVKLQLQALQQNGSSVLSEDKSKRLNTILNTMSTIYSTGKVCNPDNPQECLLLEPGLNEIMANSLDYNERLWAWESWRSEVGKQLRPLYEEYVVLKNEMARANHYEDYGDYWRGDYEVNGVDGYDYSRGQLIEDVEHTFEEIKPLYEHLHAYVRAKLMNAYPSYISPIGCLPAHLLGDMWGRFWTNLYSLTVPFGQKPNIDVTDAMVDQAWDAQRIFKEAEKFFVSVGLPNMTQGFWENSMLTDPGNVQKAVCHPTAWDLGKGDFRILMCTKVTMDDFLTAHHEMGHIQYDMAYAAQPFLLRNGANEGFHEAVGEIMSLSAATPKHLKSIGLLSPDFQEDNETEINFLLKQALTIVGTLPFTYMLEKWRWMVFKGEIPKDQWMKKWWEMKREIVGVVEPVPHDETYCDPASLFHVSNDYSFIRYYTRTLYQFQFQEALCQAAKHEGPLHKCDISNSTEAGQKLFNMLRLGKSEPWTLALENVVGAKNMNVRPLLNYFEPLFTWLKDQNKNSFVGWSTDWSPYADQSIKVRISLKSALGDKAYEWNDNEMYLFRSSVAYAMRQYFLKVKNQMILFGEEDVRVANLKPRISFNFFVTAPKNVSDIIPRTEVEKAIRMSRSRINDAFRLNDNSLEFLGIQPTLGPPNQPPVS
Sequence of human defensin 5 (HD5) (Q01523 63-94): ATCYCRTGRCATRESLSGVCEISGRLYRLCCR

For “2019-nCoV spike 1 protein (S1) (domain or fragment)”, the Kd in assay [1] is 2.68 nM.
With “human defensin 5 (HD5) (from UniProt Q01523 63-94) (peptide)”, the Kd in assay [1] is 39.3 nM; in assay [2] it was 82.8 nM.
